Columns and labels:
[1] = system: CD8+ T cells co-cultured with MM.1S multiple myeloma cells; assay: PD-1 induction on CD8+ T cells co-cultured with MM.1S-luc cells, flow cytometry; type: cell-based, human; details: 1 nM BCMAxCD3 bispecific
Protocol: CD3+ T cells from PBMCs (Stem Cell Technologies) were negatively selected using EasySep Human T cell enrichment kit (Stem Cell Technologies). 10,000 target Multiple Myeloma MM.1S cells expressing luciferase (MM.1S-luc) were seeded with 50,000 CD3^+ pan T cells in a clear 96-well V-bottom plate. Cells were treated with 1 nM BCMAxCD3 bispecific antibody and PD-1 expression was analyzed at 3, 24, 48 and 72 hours after addition of the BCMAxCD3 bispecific. At the specified time points, cells were collected from the wells, washed with PBS+2% FBS, and stained with ZombieNlR Viability dye (Biolegend) in PBS for 20 minutes at room temperature, followed by staining with antibodies against human CD8 and PD-1 (Biolegend). Samples were analyzed using FlowJo flow cytometry analysis software. Dead cells were removed from analysis by gating on ZombieNlR negative population. Samples were further gated on CD8^+ positive population. Percentage of PD-1^+ cells is expressed as PD-1 positive cells within the CD8^+ population.

[2] = system: MM.1S-Luc-PD-L1 multiple myeloma cells; assay: Orthotopic MM.1S-Luc-PD-L1 multiple myeloma mouse model, luminescent imaging; type: in vivo, NSG mice; details: BCMAxCD3 10 μg/kg single IV dose day 21, anti-PD-1 5 mg/kg IP twice a week
Protocol: MM.1 S-Luc multiple myeloma cells were engineered to express PD-L1 and are referred to as MM.1S-Luc-PD-L1. MM.1S-Luc-PD-L1 cells were prepared as a single cell suspension of 5×10^6 cells for intravenous (IV) inoculation into NSG mice.
Tumor growth was monitored by luminescent imaging by intraperitoneal (IP) injection of luciferin solution in DPBS and imaged using Perkin Elmer IVIS Spectrum camera system. Animals were administered 2×10^7 expanded human T cells IV 19 days after tumor cell inoculation. Two days following T cell administration, a single dose of the BCMAxCD3 bispecific (10 μg/kg) was administered as a bolus IV injection. Anti-PD-1 antibody was administered twice a week as a bolus IP injection at 5 mg/kg for a total of 6 injections.
Tumor growth was monitored via imaging measurements collected twice weekly. Mice were imaged using the Perkin Elmer IVIS Spectrum camera system with automatic parameter determination and a maximum imaging time of 3 minutes. Living Image software was used to collect the data. Regions of Interest (ROIs) were drawn around the entire body of the mouse, excluding as much as possible of the tail. Background flux, as measured on the anesthesia manifold, is subtracted from each ROI. Tumor measurements are expressed as total flux expressed in photons/sec (p/s). Study was terminated at day 40 post tumor inoculation.

H929-luc cells = assay: BCMAxCD3 mediated cell killing with human T cells, with or without GSI (luciferase viability); type: cell-based; details: with or without 1 μM GSI, 60 hours
Protocol: (§1) CD3^+ T cells from PBMCs (Stem Cell Technologies) were negatively selected using EasySep Human T cell enrichment kit (Stem Cell Technologies). Multiple myeloma cells expressing luciferase (MM.1S-luc, OPM2-luc, H929-luc, Molp8-luc, RPMI8226-luc) were treated with 1 μM GSI […]. After 24 hours, cells were seeded with 50,000 CD3^+ pan T cells in a clear 96-well V-bottom plate. Cells were further treated with a range of BCMAxCD3 bispecific antibody concentrations with or without 1 μM GSI. 60 hours after treatment, luciferase activity in treated cells was analyzed using NeoLite reagent kit (Perkin Elmer) and acquired on VictorX multimode plate reader (Perkin Elmer). Cell viability was calculated by dividing luciferase activity of treated cells over luciferase activity of untreated control (no BCMAxCD3 bispecific antibody added).

MM.1S-luc cells = assay: as above; type: cell-based; details: with or without 1 μM GSI, 60 hours
Protocol: as §1

Molp8-luc cells = assay: as above; type: cell-based; details: with or without 1 μM GSI, 60 hours
Protocol: as §1

OPM2-luc cells = assay: as above; type: cell-based; details: with or without 1 μM GSI, 60 hours
Protocol: as §1

RPMI8226-luc cells = assay: as above; type: cell-based; details: with or without 1 μM GSI, 60 hours
Protocol: as §1

Raji-luc lymphoma cells = assay: as above; type: cell-based; details: with or without 1 μM GSI, 60 hours
Protocol: CD3^+ T cells from PBMCs (Stem Cell Technologies) were negatively selected using EasySep Human T cell enrichment kit (Stem Cell Technologies). 10,000 target lymphoma cells expressing luciferase (Raji-luc) were treated with 1 μM GSI. After 24 hours, cells were seeded with 50,000 CD3^+ pan T cells in a clear 96-well V-bottom plate. Cells were further treated with a range of BCMAxCD3 bispecific concentrations with or without 1 μM GSI. 60 hours after treatment, luciferase activity in treated cells was analyzed using NeoLite reagent kit (Perkin Elmer) and acquired on VictorX multimode plate reader (Perkin Elmer). Cell viability was calculated by dividing luciferase activity of treated cells over luciferase activity of untreated control (no BCMAxCD3 bispecific antibody added).

PF-06863135: heterodimeric humanized full-length bispecific antibody, one BCMA binding arm and one CD3 binding arm, modified human IgG2Δa Fc
% PD-1 (of CD8+ T cells) ([1]; 3 hours): 12.8 ± 0.6%
% PD-1 (of CD8+ T cells) ([1]; 24 hours): 18.9 ± 1.2%
% PD-1 (of CD8+ T cells) ([1]; 48 hours): 69.9 ± 3.1%
% PD-1 (of CD8+ T cells) ([1]; 72 hours): 69.9 ± 3.1%
Tumor measurements expressed as total flux ([2]; day 15 post tumor cell inoculation (before dosing)): 1.513 × 10^7 p/s
Tumor measurements expressed as total flux ([2]; day 18 post tumor cell inoculation (before dosing)): 8.343 × 10^7 p/s
Tumor measurements expressed as total flux ([2]; day 20 post tumor cell inoculation (before dosing)): 1.788 × 10^8 p/s
Tumor measurements expressed as total flux ([2]; day 25 post tumor cell inoculation): 2.2729 × 10^7 p/s
Tumor measurements expressed as total flux ([2]; day 28 post tumor cell inoculation): 7.082 × 10^7 p/s
Tumor measurements expressed as total flux ([2]; day 32 post tumor cell inoculation): 7.076 × 10^7 p/s
Tumor measurements expressed as total flux ([2]; day 35 post tumor cell inoculation): 8.712 × 10^8 p/s
Tumor measurements expressed as total flux ([2]; day 39 post tumor cell inoculation): 6.776 × 10^8 p/s
H929 cell viability (H929-luc cells; BCMAxCD3 0.00001 nM): 80.2 ± 0.3 % control
H929 cell viability (H929-luc cells; BCMAxCD3 0.00005 nM): 81.1 ± 0.2 % control
H929 cell viability (H929-luc cells; BCMAxCD3 0.00026 nM): 79 ± 0.8 % control
H929 cell viability (H929-luc cells; BCMAxCD3 0.00128 nM): 77.8 ± 3.3 % control
H929 cell viability (H929-luc cells; BCMAxCD3 0.0064 nM): 81.2 ± 3 % control
H929 cell viability (H929-luc cells; BCMAxCD3 0.032 nM): 98.6 ± 1.2 % control
H929 cell viability (H929-luc cells; BCMAxCD3 0.16 nM): 23.2 ± 7.2 % control
H929 cell viability (H929-luc cells; BCMAxCD3 0.8 nM): 11.3 ± 1.5 % control
H929 cell viability (H929-luc cells; BCMAxCD3 4 nM): 8.6 ± 3 % control
MM.1S cell viability (MM.1S-luc cells; BCMAxCD3 0.00001 nM): 80.6 ± 3.9 % control
MM.1S cell viability (MM.1S-luc cells; BCMAxCD3 0.00005 nM): 79.8 ± 2.9 % control
MM.1S cell viability (MM.1S-luc cells; BCMAxCD3 0.00026 nM): 78 ± 0.9 % control
MM.1S cell viability (MM.1S-luc cells; BCMAxCD3 0.00128 nM): 87.7 ± 4.4 % control
MM.1S cell viability (MM.1S-luc cells; BCMAxCD3 0.0064 nM): 108 ± 4.5 % control
MM.1S cell viability (MM.1S-luc cells; BCMAxCD3 0.032 nM): 2.5 ± 0.3 % control
MM.1S cell viability (MM.1S-luc cells; BCMAxCD3 0.16 nM): 1.7 ± 0.8 % control
MM.1S cell viability (MM.1S-luc cells; BCMAxCD3 0.8 nM): 2.4 ± 0.5 % control
MM.1S cell viability (MM.1S-luc cells; BCMAxCD3 4 nM): 1.3 ± 0.8 % control
Molp8 cell viability (Molp8-luc cells; BCMAxCD3 0.00001 nM): 64 ± 11.6 % control
Molp8 cell viability (Molp8-luc cells; BCMAxCD3 0.00005 nM): 59.1 ± 4.6 % control
Molp8 cell viability (Molp8-luc cells; BCMAxCD3 0.00026 nM): 58.5 ± 0.6 % control
Molp8 cell viability (Molp8-luc cells; BCMAxCD3 0.00128 nM): 66.7 ± 0.3 % control
Molp8 cell viability (Molp8-luc cells; BCMAxCD3 0.0064 nM): 55.2 ± 1.3 % control
Molp8 cell viability (Molp8-luc cells; BCMAxCD3 0.032 nM): 66.1 ± 4.9 % control
Molp8 cell viability (Molp8-luc cells; BCMAxCD3 0.16 nM): 8 ± 2 % control
Molp8 cell viability (Molp8-luc cells; BCMAxCD3 0.8 nM): 6.1 ± 0.7 % control
Molp8 cell viability (Molp8-luc cells; BCMAxCD3 4 nM): 5.2 ± 0.3 % control
OPM2 cell viability (OPM2-luc cells; BCMA × CD3 0.00064 nM): 83.8 ± 3.4 % control
OPM2 cell viability (OPM2-luc cells; BCMA × CD3 0.0032 nM): 84.3 ± 3.1 % control
OPM2 cell viability (OPM2-luc cells; BCMA × CD3 0.016 nM): 68.4 ± 2.4 % control
OPM2 cell viability (OPM2-luc cells; BCMA × CD3 0.08 nM): 43.6 ± 6.4 % control
OPM2 cell viability (OPM2-luc cells; BCMA × CD3 0.4 nM): 3.1 ± 0.8 % control
OPM2 cell viability (OPM2-luc cells; BCMA × CD3 2 nM): 2.8 ± 0.8 % control
OPM2 cell viability (OPM2-luc cells; BCMA × CD3 10 nM): 2 ± 0.2 % control
OPM2 cell viability (OPM2-luc cells; BCMA × CD3 50 nM): 3.3 ± 0.3 % control
RPMI8226 cell viability (RPMI8226-luc cells; BCMA × CD3 0.00064 nM): 113.2 ± 10.6 % control
RPMI8226 cell viability (RPMI8226-luc cells; BCMA × CD3 0.0032 nM): 130.5 ± 19.5 % control
RPMI8226 cell viability (RPMI8226-luc cells; BCMA × CD3 0.016 nM): 113.4 ± 1.3 % control
RPMI8226 cell viability (RPMI8226-luc cells; BCMA × CD3 0.08 nM): 54.2 ± 16.9 % control
RPMI8226 cell viability (RPMI8226-luc cells; BCMA × CD3 0.4 nM): 28.7 ± 13.6 % control
RPMI8226 cell viability (RPMI8226-luc cells; BCMA × CD3 2 nM): 25.7 ± 5.5 % control
RPMI8226 cell viability (RPMI8226-luc cells; BCMA × CD3 10 nM): 19.9 ± 1.1 % control
RPMI8226 cell viability (RPMI8226-luc cells; BCMA × CD3 50 nM): 19.4 ± 5^ % control
Raji Cell Viability (Raji-luc lymphoma cells; BCMA × CD3 0.00064 nM): 94 ± 3.7 % control
Raji Cell Viability (Raji-luc lymphoma cells; BCMA × CD3 0.0032 nM): 107 ± 4.5 % control
Raji Cell Viability (Raji-luc lymphoma cells; BCMA × CD3 0.016 nM): 105.8 ± 10.2 % control
Raji Cell Viability (Raji-luc lymphoma cells; BCMA × CD3 0.08 nM): 89.3 ± 5.7 % control
Raji Cell Viability (Raji-luc lymphoma cells; BCMA × CD3 0.4 nM): 88.1 ± 18.4 % control
Raji Cell Viability (Raji-luc lymphoma cells; BCMA × CD3 2 nM): 71 ± 9.7 % control
Raji Cell Viability (Raji-luc lymphoma cells; BCMA × CD3 10 nM): 82.1 ± 9.7 % control
Raji Cell Viability (Raji-luc lymphoma cells; BCMA × CD3 50 nM): 80 ± 13.2 % control
